The values below come from the supplement of paper PMC12042874.

± gives the uncertainty stated by the source.

The nature of this data set: amyloid nucleation score (Sup35N fusion, yeast selection) (log enrichment); library NNK3; higher = more nucleation; inactive = no reads after selection. In short, it runs like this:
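The nucleation score is the DiMSum log enrichment of output over input reads, centred on the mode score of non-aggregating sequences. Only sequences with 100 or more input reads were scored, using Illumina sequencing of input and output plasmid inserts. Psi-negative yeast expressing Sup35N fused to peptides of 20 random codons were induced 24 hours with 100 μM copper sulfate and grown 7 days at 30°C on medium lacking adenine and uracil.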
Turning to SSECSMALIL, the amyloid nucleation score entry is “inactive”.
On to KGALRFITYSSMLVYYLNLG, for which the amyloid nucleation score entry is “inactive”.
Consider GHGLGAAYCRIVLKRETLTN, for which the amyloid nucleation score entry is “inactive”.
As to NILGLKCPSYYPQHVSCGYY, the amyloid nucleation score entry is “inactive”.
Take NDSGAPPLPSGLQPLHH: the amyloid nucleation score entry was “inactive”.
With RVLRLLRVDAGHNLI the figure was -0.029 ± 0.81.
In the case of LCMFPLIWFILLFRFFKLWG, the amyloid nucleation score entry is “inactive”.
Take TRVDLLYRSRNDGIVFFSRF: the amyloid nucleation score worked out at 0.773 ± 0.2.
As to LYVLSGVGICIRGDRLSC, the amyloid nucleation score turned out to be 0.535 ± 0.36.
With GGRTM the entry was “inactive”; with SDQVGFQIEVFCVKS, “inactive”; with WRKTSVMFADSGIV, “inactive”.
TVTFYNCIVGCVSNWVSVQG: the amyloid nucleation score worked out at 1.77 ± 0.068.
In turn, QARVRYDASTLLFGCTFC gave an amyloid nucleation score of 2.65 ± 0.079.
Consider VIMVSSRDQADLCESVMQM, for which the amyloid nucleation score result is “inactive”.
Under SILWSPIDEGLIIVSSVTFL stands “inactive”; under SYVICGLYIFGCIFRSFTLP, “inactive”; under CNVNIHYFGTV, “inactive”.
Under WLLENVPGITLAFV stands “inactive”.
Consider NCIAWYQW, for which the amyloid nucleation score was -0.393 ± 0.7.
Under ASQFRCDHCMPRLKGETMET stands “inactive”.
With VSKVMSEMIYVGIYICKCCL the figure was 1.39 ± 0.11; with WWSKRLKRLVNCGLR, “inactive”.
For VRLTLIRSLRARRDGEDSKM, the amyloid nucleation score result is “inactive”.
As for ARYDRS, the amyloid nucleation score result was “inactive”.
Under KWYQVGSVLKRIRLNILRG stands -1.51 ± 2.4.
For GLFCPVYS, the amyloid nucleation score entry is “inactive”.
With STTIGF, the amyloid nucleation score entry was “inactive”.
In turn, TVSKANWVLLEFLTFCGMI registered an amyloid nucleation score of 1.74 ± 0.096.
As to PVKGSFDT, the amyloid nucleation score entry is “inactive”.
Under FLFIGSFCGCSVSRPDRYYS stands 2.57 ± 0.08; under NLAFAVYARTRLKLSPASCV, “inactive”.
For KYVVSYLGFKFGWKHYSKYY, the amyloid nucleation score result was “inactive”.
Under QSEICLSWCIQSVGDVVDYR stands “inactive”.
RDQSVCGLSRGVIRVVGSCG: the amyloid nucleation score entry was “inactive”.
Under KFCLWYSGTNELDLCEPSMT stands “inactive”.
Under VRRCNTCLQ stands “inactive”.
On to GLTTLCSVPKQYVKYFVVTH, for which the amyloid nucleation score entry is “inactive”.
ATSCILMMDLSRYYVGLYHR yielded an amyloid nucleation score of 0.88 ± 0.094.
Turning to VLFRKCQCVRSHLI, the amyloid nucleation score entry was “inactive”.
In the case of VWTGHCMASFVRFTCSVVDD, the amyloid nucleation score result is “inactive”.
WWKSLLTRWRCLPPRK yielded an amyloid nucleation score of -0.307 ± 0.62.
Under FNVSHLVRYSVCYFCGMIEL stands 1.89 ± 0.063; under MSFRIAKDIMCLVGFSLRCT, “inactive”; under GSSAPKWVWNWFVPYGKRQG, 1.3 ± 0.089.
Under IATLEDFMFPLFWYCIYLTN stands “inactive”; under NNMVHVVDKFFSLILVMVFS, “inactive”; under SYFWILRAWS, “inactive”.
As for QLMYRE, the amyloid nucleation score entry was “inactive”.
For the substance YGYVLTSTVGVILVYWSYSC, the amyloid nucleation score entry is “inactive”.
Under LSDGGAFLLIRHVFVWGFVT stands “inactive”; under IPIFWCYI, “inactive”; under SIFSLLCVRLRGEVAPSRLM, “inactive”.
For SCSNCVHISRTAILTGPRSA, the amyloid nucleation score result was “inactive”.
Under VVLNWNTNGY stands 0.669 ± 0.15; under RGLYKVD, “inactive”; under VMCGNMWVYVKSLDT, 0.96 ± 0.11.
SSKHC: the amyloid nucleation score entry is “inactive”.
For the substance ISMSVYFFTIISSQFMFPIR, the amyloid nucleation score entry was “inactive”.
On to SLSIASVWWDPGTHVFLALW, for which the amyloid nucleation score entry is “inactive”.
Substance VVCFFYNVF displayed an amyloid nucleation score of 2.36 ± 0.055.
As for PYAGCIH, the amyloid nucleation score result was “inactive”.
Under KFHIFFCSFCVPPE stands 3.17 ± 0.082; under SSWPICMPASQNLLLNIGLG, “inactive”; under YYSVMCRVRVA, “inactive”.
With SQLRMFRVARVLIAEVNAP, the amyloid nucleation score entry was “inactive”.
As to TCVLLCDVFFHGLVLDLKLV, the amyloid nucleation score entry is “inactive”.
For CNNMYRERNNFWILMEWSLL, the amyloid nucleation score result is “inactive”.
MIIAFFCDYNGVEG: the amyloid nucleation score result was “inactive”.
In the case of IGIEFLNLKHLPSYLLSVRF, the amyloid nucleation score entry was “inactive”.
Regarding SEQVMRTRDSTRAKSGLNVI, the amyloid nucleation score came to 0.569 ± 0.22.
Under GGLDFSSLSLMWYTQSSHKV stands “inactive”; under IYCPYVGCVMSLGTGCM, 1.06 ± 0.19; under IGFIIGDVFAA, “inactive”.
Under GYYANGISRPVILLMFWRVR stands “inactive”.
Under VSFNP stands -0.32 ± 0.6.
Regarding WMPQFCLRCSSVV, the amyloid nucleation score entry was “inactive”.
Substance SLETMFMEKKRTSPNMVMLW displayed an amyloid nucleation score of -0.42 ± 0.73.
Turning to CKFFQGKEEVS, the amyloid nucleation score entry is “inactive”.
For the substance FACAFKSSCLNHLCSAVW, the amyloid nucleation score turned out to be 0.757 ± 0.17.
On to STIAGPFLKFARSGTCPPVP, for which the amyloid nucleation score is -0.776 ± 1.8.
As to KPWMVEAPFERA, the amyloid nucleation score entry is “inactive”.
Take PTATRGPMTLRSHASHHRTL: the amyloid nucleation score result is “inactive”.
ISMFDPLRCPWSNYGMCG: the amyloid nucleation score result was “inactive”.
Under LSIDEWRFSSANSTALECHV stands “inactive”; under QCKGCFSPVFKSCFICR, “inactive”.
ALYTCMNLSYPLHSEFVTPR: the amyloid nucleation score result is “inactive”.
With VTKARSHYTVSVLMDEKCMG the entry was “inactive”; with RSTFYIISCRTVDWESVSTR, “inactive”; with QHRSESIFFVIKSLLLRGCI, “inactive”.
On to NKIVNECWHLICSFKLGNLQ, for which the amyloid nucleation score result was “inactive”.
With VYGLMIIWVIVLYPV the entry was “inactive”; with RAKVISSWSLPGSSVKSYPA, “inactive”; with NGFVI, “inactive”.
Under YMIDPYKEEVLPP stands “inactive”; under LGRPYQHVWYIHSEVKGVEY, 0.116 ± 0.28.
On to AEVPSFECFTVPVFLRSIAV, for which the amyloid nucleation score entry was “inactive”.
With LFQLHMVLSF the entry was “inactive”; with VLMECSNFAVEQTARLVPVR, “inactive”; with VFFVNHFNVWLERM, “inactive”.
With YRVSEELTLLY the entry was “inactive”; with LYVVWYSHPWTEYFACSLVA, “inactive”.
Turning to NAYSKNVFQHVGMHTWSWYL, the amyloid nucleation score entry is “inactive”.
Turning to EVIRCRSSEEIPGRTNSMWD, the amyloid nucleation score result was “inactive”.
With TCSSACFVENRDTNHNGHGG the entry was “inactive”; with FYQNLFRILMHNVHAVCPCY, “inactive”; with GVLREEL, “inactive”.
Under NRDNAEQYYRPTVTVCSEGW stands “inactive”.
Under FWKFRGQTWYCFAGTDGISH stands -0.002 ± 0.75; under ACGRVNVCYLTPMVRHSGRS, “inactive”; under FVKCSRMF, “inactive”.
As to YCSVLELKSYLTLSLSKWKW, the amyloid nucleation score entry was “inactive”.
With AIFFSFYRSFY the figure was 1.86 ± 0.053; with NVDHRTKSWLINWFTSLELL, “inactive”; with IICLSGGDFRRYELDHSN, “inactive”.
Regarding LWMFDYKPRLVCQKSV, the amyloid nucleation score result was “inactive”.
DVDVPT: the amyloid nucleation score entry was “inactive”.
Under GLGYFPIWASLRTKLVLILG stands “inactive”; under IEAVCNSWRIYGM, “inactive”.
WMFRSAVFYGYVYALGCMRS yielded an amyloid nucleation score of 0.924 ± 0.22.
Under PTQNKSDKVACGR stands “inactive”; under LMLRVHGMW, “inactive”; under FSYSFVTRDMATYGRTLVKS, “inactive”.
With SACEMWATRHKNWRASGYNH the entry was “inactive”.
For the substance QGIGGATVTFLRLFV, the amyloid nucleation score result was “inactive”.
Under NSMSKVKMLVRSISTIEEVK stands “inactive”; under ITVSTGW, “inactive”; under NTCDAPMSNGYAWWD, -0.399 ± 0.75.
In the case of NSIQEDV, the amyloid nucleation score result was “inactive”.
KEAPIWRKKGQNLLLPVSGW: the amyloid nucleation score result is “inactive”.
With AVIWGEAPRIFLTCGALRRE the entry was “inactive”.
With YFWEASGFHFIRLVTTASTQ the entry was “inactive”.
